The target of data set [1] is T1, Human alpha-thrombin (Factor IIa) (Homo sapiens, UniProt P00734;P00734 328-363;364-622). Kind of data set: bead fluorescence binding.
Data set [2] concerns the target T1, Human alpha-thrombin (Factor IIa). Kind of data set: bead fluorescence binding. This is another data set of the same source.

Binding result and Kd data for six molecules are collected here from paper doi:10.1101/2022.07.28.501929.

Where two headings read alike, the source gives them in different places.

B1: SAM22-22 (mixed)
DNA 1: ACGTGAGAGCAAGTCCGTGGTAGGGCAGGTTGGGGTGACTACATACGACGA
DNA 2: TGCTCTCACGTTCGTCGTATGT
On to B1, for which, in data set [1], the binding result is “binds”.

B2: SAM20-20 (mixed)
DNA 1: ACGTGAGAGCAGTCCGTGGTAGGGCAGGTTGGGGTGACTCATACGACGA
DNA 2: GCTCTCACGTTCGTCGTATG
Consider B2, for which the binding result in data set [1] was “binds”.

B3: SAM24-24 (mixed)
DNA 1: ACGTGAGAGCAGAGTCCGTGGTAGGGCAGGTTGGGGTGACTGACATACGACGA
DNA 2: CTGCTCTCACGTTCGTCGTATGTC
As for B3, binding in data set [1] was characterised by a dissociation constant (Kd) of 30.9 ± 5.67 nM.

B4: SAM16-16 (SAM16 with gap = 0) (mixed)
DNA 1: ACGTGAGAAGTCCGTGGTAGGGCAGGTTGGGGTGACTTACGACGA
DNA 2: TCTCACGTTCGTCGTA
B4 yielded a Kd in data set [1] of 2010 ± 87.3 nM.

B5: SAM16 with gap = 3 (mixed)
DNA 1: ACGTGAGAAGTCCGTGGTAGGGCAGGTTGGGGTGACTTACGACGA
DNA 2: TCTCACGTTTTTCGTCGTA
In the case of B5, the Kd in data set [1] was found to be 11.6 ± 2.87 nM.

B6: SAM16-16 with EcoRI site, EcoRI digested (mixed)
DNA 1: AATTCCGAAGTCCGTGGTAGGGCAGGTTGGGGTGACTATCGACGG
DNA 2: TCGG
DNA 3: AATTCCGTCGAT
B6: the Kd in data set [2] is 56.3 ± 5.48 nM.

As usually defined, the Kd is the concentration at which binding is half-saturated. A higher Kd goes with weaker binding.
